Test results from patent US20180016339A1 (University of Washington, published 2018).

Biological target: T1, human MICB expressed on cells (TRAMP-MICB) (human, UniProt Q29980 23-383)
T1 construct: also called TC2 derivative TRAMP-MICB
T1 sequence: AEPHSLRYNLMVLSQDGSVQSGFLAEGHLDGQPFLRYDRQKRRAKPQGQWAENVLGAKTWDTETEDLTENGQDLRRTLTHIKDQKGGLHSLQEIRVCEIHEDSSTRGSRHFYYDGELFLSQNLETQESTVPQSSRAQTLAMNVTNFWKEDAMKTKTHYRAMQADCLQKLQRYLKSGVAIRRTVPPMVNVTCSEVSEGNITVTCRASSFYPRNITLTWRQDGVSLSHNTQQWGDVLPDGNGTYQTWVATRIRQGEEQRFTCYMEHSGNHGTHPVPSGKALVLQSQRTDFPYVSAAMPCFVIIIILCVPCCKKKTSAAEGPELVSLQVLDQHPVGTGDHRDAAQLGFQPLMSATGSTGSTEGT
Assay: flow cytometry on TRAMP-MICB cells, 2 ug/ml antibody, PE goat anti-mouse IgG
Protocol: Cells were analyzed with BD FACSscan. Data were analyzed with CellQuest software.

B1: monoclonal antibody P2B10G5 (antibody, V domains shown)
VH: EVQLEESGPGLVKPSQSLSLTCTVTGYSITSDYAWNWIRQFPGNKLEWMGYISYSGSTNYNPSLKSRISITRDTSKNQFFLQLNSVITEDTATYYCARGGTYFDYWGQGTTLTVSS
VL: DIVLTQTTSYLSVSLGGRVTIACKASAHINNWLAWYQQKPGNAPRLLISDATSLETGVPSRFSGSGSGKDYTLSITSLQTEDVATYYCQHYWSTPWTFGGGTKLEIKR
notes: Mouse hybridoma antibody, IgG1 kappa, raised against recombinant soluble MIC; also called mAb B10G5; anti-sMIC
- binding result: binds
